In patent publication US20030134310A1:

Columns and labels:
[1] = molecular target: control mRNA-protein fusion molecule containing an optimized v-abl phosphorylation site (…), phosphorylated by v-abl; test: immunoprecipitation of the mRNA-peptide fusion with 4G10 after the v-abl kinase reaction
[2] = molecular target: TC26 fragment of Shg (clone obtained in round five of the selection)
[3] = molecular target: control peptides (r-series) containing the same amino acids as the test peptides, but in a scrambled order

Molecule	percent of fusion molecules immunoprecipitated [1]	phosphorylation in vitro (full-length Shg protein)	phosphorylation of mutagenized TC26 peptides with [γ-32P]ATP [2]	v-abl kinase activity on 5 µM substrate EAIYAAPFAKKK [3]
4G10 anti-phosphotyrosine antibody (Upstate Biotechnology)	3%	–	–	–
ZAP 70 kinase (protein) MPDPAAHLPFFYGSISRAEAEEHLKLAGMADGLFLLRQCLRSLGGYVLSLVHDVRFHHFPIERQLNGTYAIAGGKAHCGPAELCEFYSRDPDGLPCNLRKPCNRPSGLEPQPGVFDCLRDAMVRDYVRQTWKLEGEALEQAIISQAPQVEKLIATTAHERMPWYHSSLTREEAERKLYSGAQTDGKFLLRPRKEQGTYALSLIYGKTVYHYLISQDKAGKYCIPEGTKFDTLWQLVEYLKLKADGLIYCLKEACPNSSASNASGAAAPTLPAHPSTLTHPQRRIDTLNSDGYTPEPARITSPDKPRPMPMDTSVYESPYSDPEELKDKKLFLKRDNLLIADIELGCGNFGSVRQGVYRMRKKQIDVAIKVLKQGTEKADTEEMMREAQIMHQLDNPYIVRLIGVCQAEALMLVMEMAGGGPLHKFLVGKREEIPVSNVAELLHQVSMGMKYLEEKNFVHRDLAARNVLLVNRHYAKISDFGLSKALGADDSYYTARSAGKWPLKWYAPECINFRKFSSRSDVWSYGVTMWEALSYGQKPYKKMKGPEVMAFIEQGKRMECPPECPPELYALMSDCWIYKWEDRPDFLTVEQRMRACYYSLASKVEGPPGSTQKAEAACA	–	the full-length Shg protein was phosphorylated by both v-abl and ZAP 70 in vitro	–	–
recombinant v-abl tyrosine kinase (New England Biolabs) (protein) YITPVNSLEKHSWYHGPVSRNAAEYLLSSGINGSFLVRESESSPGQRSISLRYEGRVYHYRINTASDGKLYVSSESRFNTLAELVHHHSTVADGLITTLHYPAPKRNKPTIYGVSPNYDKWEMERTDITMKHKLGGGQYGEVYEGVWKKYSLTVAVKTLKEDTMEVEEFLKEAAVMKEIKHPNLVQLLGVCTREPPFYIITEFMTYGNLLDYLRECNRQEVSAVVLLYMATQISSAMEYLEKKNFIHRDLAARNCLVGENHLVKVADFGLSRLMTGDTYTAHAGAKFPIKWTAPESLAYNKFSIKSDVWAFGVLLWEIATYGMSPYPGIDLSQVYELLEKDYRMERPEGCPEKVYELMRACWQWNPSDRPSFAEIHQAFETMFQESSISDEVEKELGKRG	–	the full-length Shg protein was phosphorylated by both v-abl and ZAP 70 in vitro	only the first tyrosine is a substrate for v-abl	did not have a significant effect on v-abl kinase activity
